Assay results published in the supplement of paper PMC10567573.

B1: ANKRD40 (parent)
chain: SLRENDFIEIELDRQELTYQELLR

Variants of: B1
Experiment: protein stability index of a GFP-peptide fusion (GPS, HEK-293T) (PSI 1-6); higher = more stable
Details: c terminus: a fixed tail appended
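Also: lentivirally expressed fusions sorted by FACS into six bins by GFP to DsRed ratio, PSI derived from sequencing read proportions per bin multiplied by bin number.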

Protein stability index, by site and new letter:
Y19: R 4.13; Q 4.47; C 2.93; V 3.38; T 3.5
R3: V 2.44; Y 2.65; P 3.52; K 3.23; N 3.06; A 3.29; S 3.54; T 2.91; G 3.26
L2: K 3.01; F 2.36; A 3.91; G 3.02; S 3.2; I 2.66; Y 2.68; D 3.6; T 3
T18: G 3.53; H 3.2; Q 3.37; P 3.28; A 3.06; E 3.49; R 3.29; F 1.85; L 2.49; W 2.73; Y 2.59
I10: S 3.68; F 3.41; L 3.16; R 3.53; P 4.24; A 4.02; N 3.75; K 3.48
D13: Y 1.87; E 2.82; F 1.99; C 2.35; S 2.54; K 2.55; W 1.81; I 1.77; A 2.56; Q 2.93; M 2.45; L 2.04; T 2.15
R24: S 2.92; N 3.49; Y 2.43; M 2.52; T 3.06
E21: Y 1.77; T 2.09; N 2.83; S 2.71; G 2.67; A 2.44; L 1.69; H 2.76; W 1.85; K 2.67
S1: F 2.29; I 2.34; V 3.17; L 2.84; H 3.26; R 3.07; E 3.41
L23: T 3.59; N 4.05; F 2.54; W 2.04; V 3.53; R 3.75; H 3.6; P 3.58; Q 3.94; D 4.25; M 3.16; I 2.76
L12: A 3.92; H 3.82; N 4.17; Q 4.13; C 3.88; S 4.18; W 2.8; P 3.72; D 4.51; K 3.91
D6: G 2.82; C 2.28; M 1.66; T 2.34; A 2.42; S 2.55; H 2.57; I 1.28; P 2.97; F 2.12; E 2.97; K 2.64
R14: F 1.44; D 3.85; W 1.79; V 2.06; E 3.37; P 2.86; A 2.87; S 3.06
E16: H 2.89; P 3.42; F 2.5; S 3.48; C 2.46; W 2.55; L 2.99; M 2.6; T 2.76
Q20: W 2.25; G 3.15; M 2.3; D 3.7; A 2.72; N 2.65; T 2.97; P 2.95; C 2.16; F 1.99
I8: L 3.77; S 3.34; W 3.26; A 3.83; Q 4.23; Y 3.28; P 3.89; C 3.57
Q15: M 2.25; W 2.37; G 3.68; E 3.28; Y 2; S 3.17; A 2.63; T 2.91; F 2.09
L17: K 3.61; N 3.54; Y 3.28; C 3.12; F 2.61; A 3.11; S 3.41; R 3.25; P 2.74; G 3.3; Q 3.57; E 3.37
